In the DeepSol protein solubility set:

Experiment: soluble on expression in E. coli; label from the status in PepcDB or PDB records

Sequence | soluble on expression in E. coli
MGSDKIHHHHHHMGLALCGAAAQAQEKPNFLIIQCDHLTQRVVGAYGQTQGCTLPIDEVASRGVIFSNAYVGCPLSQPSRAALWSGMMPHQTNVRSNSSEPVNTRLPENVPTLGSLFSESGYEAVHFGKTHDMGSLRGFKHKEPVAKPFTDPEFPVNNDSFLDVGTCEDAVAYLSNPPKEPFICIADFQNPHNICGFIGENAGVHTDRPISGPLPELPDNFDVEDWSNIPTPVQYICCSHRRMTQAAHWNEENYRHYIAAFQHYTKMVSKQVDSVLKALYSTPAGRNTIVVIMADHGDGMASHRMVTKHISFYDEMTNVPFIFAGPGIKQQKKPVDHLLTQPTLDLLPTLCDLAGIAVPAEKAGISLAPTLRGEKQKKSHPYVVSEWHSEYEYVTTPGRMVRGPRYKYTHYLEGNGEELYDMKKDPGERKNLAKDPKYSKILAEHRALLDDYITRSKDDYRSLKVDADPRCRNHTPGYPSHEGPGAREILKRK | not soluble
MGSDKIHHHHHHMKVILHIGAHRCATRSFQNYMTRKSDTLSQYGIAFMGPERTRNGLLHGIQPGAISVTGRDPMARARGRIALQLAGLQNAGTASVVISDASMLQPLEQCFALGALYPAAGEHLARLDHAFDGAVSDVMLNIRSPEMFWASALAVRLEHSLRMPNAATLSRIAEATRSWRDVIQDIYCAMPGARIRVFPYEVFATQPEAQLSAVTGVDCPHARGAFRLNASARLPELRAELPPRLAKLLPEDEGRWMPFSEAEAARLRESYYDDMMWLVGGADGLAELVEDPNKADATATPPAPDLVVQEDLTRGRMHDPDTGRLAGTG | not soluble
MVHYKLTYFLSRGLGDVSRQLFHLADVDFEDERLEKPHFLEKKETYPFKQVPVLSVDGFQIPQSMAIARYLAKKFGFAGKTAEESAMVDAFVDQFKDFYSEIRDYYYTMLGLGLTDLDGDEQKDKVLIPARDKFLPLLTRYLEKSKSGFLVDGGLTFADLIILDNMTSLLNWWPEYANDYPVILAWRDKVMNYPRLKEYIEKRPVTMY | not soluble
MGSDKIHHHHHHMLFFSFILLPELDVTMEDSGRRIKNEYRAWKERKMTKLTVGLALGSGAAKGWAHIGVLNGLAKLDIYPDKVAGCSVGALVGAAYANNHLGELETWVSGFSSWDVLGLMDLGWRKGGLISGEKVFDVLANRIGDIDIEQLNRPFAAVATDLYSGQEIWFKEGDLRHAVRASCSMPGFLPPVQQGHRWVVDGAVVNPVPVSLARSMGVDVVIAVDLNGHRRGQMHLIPEQVKSRKASKSEPIDEKRELESGFMDLWGKGKDYMNGLTDKFSLGSSKSHPGMLAVMSQSMDILEQRHKRSRLMGEPPDICIVPDVGDIGTMEFHRAKEAIKAGEQAVNDIKHLIEATLK | not soluble
MTTRRLALFDLDHTLLPLDSDYQWADFLARTGRAGDPAEARRRNDDLMERYNRGELTAEQAAEFMLGLLAAHSPVELAAWHEEFMRDVIRPSLTAQAVDVVRGHLAAGDLCALVTATNSFVTAPIARAFGVQHLIATDPEYRDGRYTGRIEGTPSFREGKVVRVNQWLAGMGLALGDFAESYFYSDSVNDVPLLEAVTRPIAANPSPGLREIAQARGWQVIDLFDHLEDAKS | not soluble
GILDPEERYEHQLRQLNDMGFFDFDRNVAALRRSGGSVQGALDSLLNGDV | soluble
MGNRLSKIYTRTGDRGETGLAGGRRVPKSHPRIEAIGAVDELNSQLGLLLAELLEARGAHPGLEEIVQALAPVQHRLFDLGGELAMPEYRALDETEVARLESCIDRWNDELGPLKNFILPGGSRPVAQAHVCRSLARSAERRCQALDQEETLEGVGLRYLNRLSDLLFVAARAIARRQGVAEILWEAAAKPD | not soluble
MAHTKKRIFDGLYAQLEETDGNVVLFSAKGEPSVIFEITNPVQQLCTDAEQYMLFQDVLSNVVQTLGEGYALQKQDVLCKQSYHHEVPEDAEFLTKSYFRYFEGREFTEIRTYLILTQEAQRSQFVQYDPKKWLDFHSKVSKVSDILKEKNIKYRKLSKEEVNEYCHRFMAFQFRHGPFSMTNFKASDEYLKIGDRVVRSYPLVDIDEINLPSLVKPYTQMNINGYGIATDLFSFLTSVPHADCVVFNQVVQIPNQRKLLRKLQAKAKRHGSMPDPSNKIAKEDIEEVLDRLAVDSTQLVYCNFNILVSCLVDKVTPVTSYLETKLYECGIMPSRTAYNQLELFTDSFPGNGYAFNPDYDLFLTLSDVALCFFFKEHLKGSEDTPLTTYYTDRQGLPVCIDITGKEGKVKMTDNANFFCIGPSGSGKSFHMNSVVRQLLEQNTDVVMVDTGDSYEGICGYYKGTYISYSKEKPISMNPFKVTKEEYDLNFGEKKNFLKSLIFLIFKGNEFPSKIEDMLINQTIVEYYEAYFHPFTKFTEKEREGLRQKLLVASKMEEDYDKFSHSMEDIDAQIREAEMDKQAESRALMLPAEARRLKLLRQCRSLYALAQDEAASKGEKERALQIIENYKKELYNNSMLIKIDKQIDHIEEQKRRLKVRVLSFNSYYEFALERIPQIVAQEKIQFNIRDFAAILKQFYRGGELEMTLNSDLNVNLFDEQFIVFEIDKIKDDPVLFPIVVLIIMDVFLQKMRIKKGRKALIIEEAWL | not soluble
MAAYRADDDYDFLYKVVLIGDSGVGKSNLLSRFTRNEFSLESKSTIGVEFATRSIHVDEKIVKAQIWDTAGQERYRAITSAYYRGAVGALLVYDVTRHVTFENVERWLKELRDHTEANIVIMLVGNKADLRHLRAVSTEDAKAFAERENTFFMETSALEALNVENAFTEVLSQIYRVASKKALDIGDDHTTLPKGQSINVGSKDDVSEVKKVGCCSS | soluble
MAALRNGLEGSSEETSFHDESLQDDREEIENNSYHMHPAGIILTKVGYYTIPSMDDLAKITNEKGECIVSDFTIGRKGYGSIYFEGDVNLTNLNLDDIVHIRRKEVVVYLDDNQKPPVGEGLNRKAEVTLDGVWPTDKTSRCLIKSPDRLADINYEGRLEAVSRKQGAQFKEYRPETGSWVFKVSHF | soluble
MTLRAAVFDLDGVLALPAVFGVLGRTEEALALPRGLLNDAFQKGGPEGATTRLMKGEITLSQWIPLMEENCRKCSETAKVCLPKNFSIKEIFDKAISARKINRPMLQAALMLRKKGFTTAILTNTWLDDRAERDGLAQLMCELKMHFDFLIESCQVGMVKPEPQIYKFLLDTLKASPSEVVFLDDIGANLKPARDLGMVTILVQDTDTALKELEKVTGIQLLNTPAPLPTSCNPSDMSHGYVTVKPRVRLHFVELGSGPAVCLCHGFPESWYSWRYQIPALAQAGYRVLAMDMKGYGESSAPPEIEEYCMEVLCKEMVTFLDKLGLSQAVFIGHDWGGMLVWYMALFYPERVRAVASLNTPFIPANPNMSPLESIKANPVFDYQLYFQEPGVAEAELEQNLSRTFKSLFRASDESVLSMHKVCEAGGLFVNSPEEPSLSRMVTEEEIQFYVQQFKKSGFRGPLNWYRNMERNWKWACKSLGRKILIPALMVTAEKDFVLVPQMSQHMEDWIPHLKRGHIEDCGHWTQMDKPTEVNQILIKWLDSDARNPPVVSKM | soluble
MSRPLSIALISETYPPEVNGVANTLGRLHAGLQQLGHRVQVVRPRQPGDDGRRSDAELVLTRGWPLPGYPGLQWGMSSLHKLLRCWKRQRPDVLYIATEGPLGFSALRAARRLGIPAVSGFHTNFQQYSEHYGFGPLTRLVTGYLRWFHNRTQMTLVPSGSQRMELQRRGFERLNLLSRGVDSQLFHPSRRDPELRRRWGLGEQDIAVLHVGRLAAEKNLGLLGGTFRALCAAHPQLKLRLVLVGDGPERKHLERDLPEALFCGVQRGETLAAHYASGDLFLFPSLSETFGNVVLEAQAAGLAVVAFDQAAAGQHIRHGHNGVLAAPGDKSGFVEVASWLLDDQERLRRVRLNARQHASRQGWDSIVEHFQNYLEDACASPLVQPARSKPERPPAEDGGALPRSRELEHHHHHH | not soluble
MPKGNKKPNEKKEELEKFAKELQGSDSDEDAVVIEQPTVEPKLPQNDSSSSNKIVLSQAEKDLLRTELDKTEEEISTLKQVLSARQKHAAELKRKLGLTPFSELSQDINRSLKTVTDTDAYQKTAEVAAATSDTVKEKWNDMRNSSLFKSFESKLGSALNNAKMAASTSIDHLAGAARGPSQTGTPVAEEAKPIS | soluble
MPVQPPSKDTEEMEAEGDSAAEMNGEEEESEEERSGSQTESEEESSEMDDEDYERRRSECVSEMLDLEKQFSELKEKLFRERLSQLRLRLEEVGAERAPEYTEPLGGLQRSLKIRIQVAGIYKGFCLDVIRNKYECELQGAKQHLESEKLLLYDTLQGELQERIQRLEEDRQSLDLSSEWWDDKLHARGSSRSWDSLPPSKRKKAPLVSGPYIVYMLQEIDILEDWTAIKKARAAVSPQKRKSDGP | soluble
MKYMIGVDIGTTSTKSVLYDENGTFIMKHQIGYDLHTPNVDVSEENPDELFDAVLMTIKYVMRESKVNKDDIKFVSFSAQMHSLIAMDQQHQRLTNNITWADNRAAKYATVINEVHDGNAIYQRTGTPIHPMSPLAKIFWMKHEWQDVFQRTAKFADIKTYIFYHLFDTYIIDYSMASATGMFNLETLDWDVEALELLGISKEMLPELVPTTYVMKGMKERYATLMGLNKDTPFVIGASDGVLSNLGVNSVGKGEVAVTIGTSGAIRTVIDKPRTDYKGRIFCYVLTEDHYVIGGPVNNGGVVLRWLRDELLASEVETAKRLGVDPYDVLTQIAKRVKPGADGLIFHPYLAGERAPLWNANARGSFFGLTLSHKKEHMIRAALEGVLYNLYTVYLALIEVMNETPKMIKATGGFAKSEVWRQMMSDIFDTELVVPESYESSCLGACVLGLKAVGDIEDFSIVSSMVGATNNHTPIEENVTVYQEIVSIFINLSRSLTENYEQIADFQRQHIAENKTQ | not soluble
GPGSMQTAHAHTMTAQMKVLKPKTVFDNRPDEARKPIKLILLGDSAVGKSKLVERFLMQRYIPVQMSTYALTLYRYDFVTEDGEEVDVDIWDTAGQERFATVHPSYYHDAHACILVFDSTRKATYKNLEKWLSEMRVYREHIPCLVACNKIDTDPSVTTKSFAFAEKHNFPLYYVSAADGSNVVQLFESAISTAAAYKKNPAKDDFMTQVIGILKEDKTAAGASAVSS | soluble
MGSDKIHHHHHHMASSTSIDFKGNVTGALADRQLRANFRSALDGLRAKRLNVFSDAEELDRMRVQGEANKRRALAQLPALLEQLEHRCTANGIIVHWAETTDEANRIVLDIMRSHDATTLVKGKSMVSEEMHLNAYLERHGIEALETDLGEFIIQLNHEPPSHIIVPAVHKNRQQVARIFHEKLGEPYVDEVEKLNAIARRTLREKFRTAQVGLSGVNFAIAETGTLLLVENEGNGRMCTTVPPVHIALMGLEKVVERLEDVPPLLRLLTGSATGQLVTTYVNCITSPRKPGEKDGPREVHLVILDNGRSRMLADPQLSRTLQCIRCGTCLNHCPVYVRIGGHAYDSVYPGPIGKILTPQIDGLARKGVLATASSLCNACEEVCPVRIPIPALLRRLRRESYAPPGEGVVKGAGSKRTLFEKAVWKGWEMVYSHPALYSFVLKVLGRFGHRLPKVGPLKAWTSVRTAPRFASTSLHELTRQEGIRHE | not soluble
MGSDKIHHHHHHMKVELDVSELAVGMYVVEITQPKNKFQLAEQGWITKQQVIDGFKRKGIEKLLVDSSKRRPQPSEPAKVNQATMDKQAAQLTKTPGLFKQRLSQAKQLFNESKAIQRRLFDDAQAGVPLTLEPVRRVTDQSIEAIFDNPDALACVINIRHKDQYLLEHSVAVSVLMTIFACYLKIDKEIVSELAIGAFLHDVGKIMIPPSILDKPGRLTTEEFEVMKTHANHSIRIIENTPNISPLSLEVARLHHEKLNGKGYPFGVSAEAISRFGRMIAICDIFDALTANRCYKAGYPQVKAFSILRALGENNELDAELVDHFIKCMGVYPVGSLVQLESNRLAIVESHNHQDPIRPKVKPFYSLNPNHFEISANIDLAAMRDDIIVKNVRADDFDLDMDEIIEFLSHEG | not soluble
